Data on 1 molecule can be found in patent US20040147437A1, “Calycins” (priority 2000, published 2004).

The nature of test [1]: Ligand binding affinity of proteins for selected ligands (FIG. 5): retinoic acid. The note with it: mutant relative to native ERABP; see FIG. 5.
Test [2] in a line: Ligand binding affinity of proteins for selected ligands (FIG. 5): retinol. The note with it: see FIG. 5.
Test [3] in a line: Ligand binding affinity of proteins for selected ligands (FIG. 5): retinal. The note with it: see FIG. 5.

B1: ERABP (Arg 80 and Glu63 to isoleucine): Epididymal Retinoic acid Binding Protein with Arg 80 and Glu63 mutated to isoleucine (protein, UniProt P06911 1-188, looked up, variant E63I R80I)
chain: MENIMPFALLGLCVGLAAGTEGAVVKDFDISKFLGFWYEIAFASKMGTPGLAHKEEKMGAMVVELKENLLALTTTYYSEDHCVLIKVTATEGDGPAKFQVTILSGKKEVVVEATDYLTYAIIDITSLVAGAVHRTMKLYSRSLDDNGEALYNFRKITSDHGFSETDLYILKHDLTCVKVLQSAAESRP
On to B1, for which the “affinity for retinoic acid” value in test [1] was “reduced affinity”. Moreover, the binding of retinol result in test [2] was “bind”. For the same molecule, the binding of retinal entry in test [3] is listed as “bind”.
